Source: patent US20240376151A1, “STAPLED PEPTIDES AND METHODS THEREOF” (FOG PHARMACEUTICALS, INC., priority 2022, published 2024)
Bridge positions count the residues as written; N and C are the ends.

Biological target: T1, PPIA (Homo sapiens, UniProt P62937)
T1 construct: Full length PPIA (residues 1-165) with an N-terminal 6×his-yBBR-TEV tag; 6×his-yBBR-TEV (N); made in house; host or cells: E. coli BL21 (DE3) CodonPlus RIPL
Experiment: Phage Library Screening with NGS, PPIA
Format: binding

[1] = target concentration 1000, first column
[2] = target concentration 1000, second column

T1 sequence (P62937 whole entry, the tested form may be a part): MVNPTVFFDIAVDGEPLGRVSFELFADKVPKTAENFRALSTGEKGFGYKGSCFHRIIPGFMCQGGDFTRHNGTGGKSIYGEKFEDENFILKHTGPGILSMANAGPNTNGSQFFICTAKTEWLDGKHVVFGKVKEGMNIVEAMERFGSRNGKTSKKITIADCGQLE

Row | phage screen counts, Target Concentration 10 | phage screen counts, Target Concentration 30 | phage screen counts, Target Concentration 100 | phage screen counts, Target Concentration 300 | phage screen counts, Target Concentration 1000 [1] | phage screen counts, Target Concentration 1000 [2] | Sequence
1 | 16 | 62 | 77 | 106 | 93 | 131 | DPAYYDCHIAAYFCRTQ
2 | 0 | 1 | 3 | 7 | 6 | 7 | DPARAACHVAAYWCYHQ
3 | 0 | 1 | 8 | 68 | 98 | 63 | PNCHVEAYFCM
4 | 0 | 0 | 0 | 0 | 20 | 35 | PYDCHIAAWMC
5 | 0 | 0 | 10 | 19 | 25 | 18 | DPAQADCHIAAYLCLFD
6 | 0 | 0 | 4 | 5 | 8 | 7 | DPARADCHVAAYWCHHQ
7 | 0 | 0 | 0 | 4 | 6 | 35 | PDCHIQAYICH
8 | 0 | 0 | 0 | 26 | 21 | 45 | PHDCHVNAWYC
9 | 0 | 0 | 0 | 12 | 18 | 26 | PTCHIDAWVCY
10 | 0 | 5 | 13 | 14 | 18 | 25 | DPARTDCHVAAYWCYHQ
11 | 0 | 0 | 4 | 5 | 6 | 6 | DPARSDCHVAAYWCYHQ
12 | 0 | 0 | 3 | 5 | 31 | 8 | PTCHIHAYHCY
13 | 0 | 0 | 17 | 14 | 41 | 27 | DPARYSCHVAAYECILN
14 | 0 | 0 | 3 | 38 | 54 | 44 | PDCHVAAYICY
15 | 0 | 3 | 13 | 16 | 20 | 21 | DPARADCQVAAYWCYHQ
16 | 0 | 1 | 6 | 6 | 7 | 6 | DPARADCHVAAYWCYHR
17 | 0 | 7 | 116 | 208 | 201 | 121 | DPAAHDCHIAAYWCLNY

Row | phage screen counts, Target Concentration 10 | phage screen counts, Target Concentration 30 | phage screen counts, Target Concentration 100 | phage screen counts, Target Concentration 300 | phage screen counts, Target Concentration 1000 [1] | phage screen counts, Target Concentration 1000 [2] | Sequence
18 | 0 | 0 | 21 | 27 | 125 | 8 | DPAQLNCHVAAFFCFQS
19 | 0 | 0 | 0 | 8 | 16 | 26 | PDCHVAAWMCF
20 | 0 | 0 | 1 | 5 | 8 | 18 | PDCHIYAFYCL
21 | 0 | 0 | 0 | 1 | 12 | 12 | PNCHVEAWYCI
22 | 0 | 1 | 6 | 8 | 10 | 10 | DPARADCHVAAYWCYQQ
23 | 0 | 0 | 1 | 8 | 10 | 7 | PNCHVMAYWCW
24 | 0 | 1 | 156 | 199 | 142 | 190 | DPAAFSCHVAAWQCHTL
25 | 0 | 0 | 0 | 4 | 5 | 19 | PNCHLYAWECY
26 | 0 | 0 | 0 | 14 | 46 | 22 | PFCHIEAYYCW
27 | 0 | 1 | 4 | 7 | 9 | 7 | DPARADCHVAAYWCYHE
28 | 0 | 0 | 10 | 13 | 10 | 19 | DPATMNCHVAAYFCIVE
29 | 0 | 0 | 1 | 8 | 11 | 120 | PDCHIRAYVCH (Ac-PDCHIRAYVCH-NH2; bridge 3-10; also: Cys-Cys staple, linker not named)
30 | 0 | 0 | 25 | 29 | 20 | 55 | DPALFDCHIAAYQCIFY
31 | 0 | 0 | 0 | 0 | 24 | 22 | PECHVEAYFCE
32 | 0 | 0 | 1 | 47 | 47 | 115 | PDCHLNAYWCM
33 | 0 | 0 | 0 | 0 | 20 | 26 | PDCHIRAYMCN
